Reference: publication PMC8673838, “MCPH1 inhibits Condensin II during interphase by regulating its SMC2-Kleisin interface” (eLife, 2021)

How the values were obtained:
[1] = molecular target: T1, human condensin II pentameric complex (SMC2, SMC4, NCAPH2, NCAPD3, NCAPG2) (human, UniProt O95347 1-1197; Q9NTJ3 1-1288; Q6IBW4 1-605; P42695 1-1498; Q86XI2 1-1143); assay: native gel or EMSA; condensin II at increasing concentrations with MCPH1_(1-435)-MBP, MBP or 1 µM 5-FAM peptide and 50 nM Cy5-labelled 50 bp dsDNA; 15 min on ice; 2 % agarose, 0.5 x TBE; details: both partners purified
T1 construct: SMC2, human, subunit of condensin II; SMC4, human, subunit of condensin II; NCAPH2, human, kleisin subunit of condensin II; NCAPD3 (CAP-D3), human, HAWK subunit of condensin II; NCAPG2 (CAPG2), human, HAWK subunit of condensin II; It says only 'strep-tagged condensin II'; also called pentameric condensin II; strep-tagged condensin II; source: insect cells, purified as previously described (Kong …)

[2] = molecular target: T2, NCAPG2 subunit of human condensin II (human, UniProt Q86XI2 1-1143); assay: pull-down; strep-tagged condensin complexes (0.1 µM) with at least a 10-fold molecular excess of MBP MCPH1 constructs or MBP, Strep-tactin sepharose, 20 mM Tris pH 7.5, 150 mM NaCl, 10 % glycerol, 1 mM DTT; five washes; Coomassie or silver stain; details: both partners purified
T2 construct: NCAPG2, human, HAWK subunit of condensin II; Never tested alone: the contact is drawn from complexes with and without this subunit; source: insect cells, as a subunit of purified condensin II (Kong et al., 2020)
T2 sequence (looked up): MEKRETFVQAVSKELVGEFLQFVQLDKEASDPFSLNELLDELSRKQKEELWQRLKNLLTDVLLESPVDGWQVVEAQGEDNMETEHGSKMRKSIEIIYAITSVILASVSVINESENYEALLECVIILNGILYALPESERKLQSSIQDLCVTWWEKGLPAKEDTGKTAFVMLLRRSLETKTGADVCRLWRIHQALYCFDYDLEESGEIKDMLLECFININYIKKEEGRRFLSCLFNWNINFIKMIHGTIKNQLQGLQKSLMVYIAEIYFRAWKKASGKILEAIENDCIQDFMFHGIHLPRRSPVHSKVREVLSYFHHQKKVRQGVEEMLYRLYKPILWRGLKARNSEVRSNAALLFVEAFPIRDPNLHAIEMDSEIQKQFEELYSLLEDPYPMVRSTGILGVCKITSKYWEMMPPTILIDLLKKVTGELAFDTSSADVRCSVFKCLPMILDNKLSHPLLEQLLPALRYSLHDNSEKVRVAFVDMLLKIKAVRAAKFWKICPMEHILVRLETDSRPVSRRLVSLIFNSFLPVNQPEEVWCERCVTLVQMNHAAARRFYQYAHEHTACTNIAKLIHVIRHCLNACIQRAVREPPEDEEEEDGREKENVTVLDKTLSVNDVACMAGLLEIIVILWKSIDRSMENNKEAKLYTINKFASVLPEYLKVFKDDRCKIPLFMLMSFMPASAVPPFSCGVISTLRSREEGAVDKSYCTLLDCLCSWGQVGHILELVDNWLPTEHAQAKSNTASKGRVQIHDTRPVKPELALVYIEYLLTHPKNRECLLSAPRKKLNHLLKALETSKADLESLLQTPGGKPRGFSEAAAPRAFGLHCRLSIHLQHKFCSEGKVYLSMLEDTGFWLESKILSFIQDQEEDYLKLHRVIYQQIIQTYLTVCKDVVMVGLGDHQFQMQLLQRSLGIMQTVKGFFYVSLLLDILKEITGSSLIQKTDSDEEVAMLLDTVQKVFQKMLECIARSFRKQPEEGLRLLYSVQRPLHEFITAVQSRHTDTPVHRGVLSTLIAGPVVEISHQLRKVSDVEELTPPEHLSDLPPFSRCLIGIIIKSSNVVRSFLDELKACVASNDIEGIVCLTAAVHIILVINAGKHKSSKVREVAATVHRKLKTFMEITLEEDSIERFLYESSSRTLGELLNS

[3] = molecular target: T3, tetrameric condensin II lacking NCAPD3 (human, UniProt O95347 1-1197; Q9NTJ3 1-1288; Q6IBW4 1-605; Q86XI2 1-1143); assay: as above; details: both partners purified
T3 construct: SMC2, human; SMC4, human; NCAPH2, human; NCAPG2, human; also called tetrameric condensin II lacking the CAP-D3 subunit; source: insect cells, purified as previously described (Kong et al., 2020); copies: + + +

MCPH1 1-435-MBP = molecular target: T4, MCPH1 1-435-MBP (Homo sapiens, UniProt Q8NEM0 1-435); assay: EMSA; 50 nM DNA; EMSA with 50 nM 5'-Cy5 50 bp dsDNA; EMSA buffer, salt, pH and temperature not given in the material; details: protein: recombinant; tags: N-term 6xHis, C-term MBP; label: 5' Cy5; blunt
T4 sequence: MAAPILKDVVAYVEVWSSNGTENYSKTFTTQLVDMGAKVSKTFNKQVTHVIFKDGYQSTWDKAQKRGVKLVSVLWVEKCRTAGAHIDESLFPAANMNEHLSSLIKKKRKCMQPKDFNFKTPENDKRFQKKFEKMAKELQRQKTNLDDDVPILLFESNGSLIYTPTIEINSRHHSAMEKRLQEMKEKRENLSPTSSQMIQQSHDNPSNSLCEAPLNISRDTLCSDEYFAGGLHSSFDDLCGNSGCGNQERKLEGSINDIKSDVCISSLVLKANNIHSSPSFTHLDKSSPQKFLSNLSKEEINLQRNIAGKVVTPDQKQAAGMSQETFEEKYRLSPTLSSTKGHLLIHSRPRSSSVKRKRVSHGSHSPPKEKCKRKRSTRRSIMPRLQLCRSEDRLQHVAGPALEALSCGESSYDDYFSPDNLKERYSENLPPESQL

condensin II pentamer = condensin II pentamer (Homo sapiens, UniProt O95347;Q9NTJ3;Q6IBW4;P42695;Q86XI2 1-1197;1-1288;1-605;1-1498;1-1143); assay: EMSA; with MBP control or without peptide; EMSA with 50 nM 5'-Cy5 50 bp dsDNA; EMSA buffer, salt, pH and temperature not given in the material; details: protein: recombinant; tags: Strep tag; copies: 1;1;1;1;1; label: 5' Cy5; blunt
[4] = molecular target: condensin II pentamer;MCPH1 1-435-MBP (Homo sapiens;Homo sapiens, UniProt O95347;Q9NTJ3;Q6IBW4;P42695;Q86XI2;Q8NEM0 …, |); assay: EMSA; condensin II bands shifted upward with MCPH1 1-435-MBP; EMSA with 50 nM 5'-Cy5 50 bp dsDNA; EMSA buffer, salt, pH and temperature not given in the material; details: protein: recombinant;recombinant; tags: Strep tag;N-term 6xHis, C-term MBP; copies: 1;1;1;1;1;1; label: 5' Cy5; blunt

Measured: binding result

T3 sequence (O95347 whole entry, chain 1 of 3): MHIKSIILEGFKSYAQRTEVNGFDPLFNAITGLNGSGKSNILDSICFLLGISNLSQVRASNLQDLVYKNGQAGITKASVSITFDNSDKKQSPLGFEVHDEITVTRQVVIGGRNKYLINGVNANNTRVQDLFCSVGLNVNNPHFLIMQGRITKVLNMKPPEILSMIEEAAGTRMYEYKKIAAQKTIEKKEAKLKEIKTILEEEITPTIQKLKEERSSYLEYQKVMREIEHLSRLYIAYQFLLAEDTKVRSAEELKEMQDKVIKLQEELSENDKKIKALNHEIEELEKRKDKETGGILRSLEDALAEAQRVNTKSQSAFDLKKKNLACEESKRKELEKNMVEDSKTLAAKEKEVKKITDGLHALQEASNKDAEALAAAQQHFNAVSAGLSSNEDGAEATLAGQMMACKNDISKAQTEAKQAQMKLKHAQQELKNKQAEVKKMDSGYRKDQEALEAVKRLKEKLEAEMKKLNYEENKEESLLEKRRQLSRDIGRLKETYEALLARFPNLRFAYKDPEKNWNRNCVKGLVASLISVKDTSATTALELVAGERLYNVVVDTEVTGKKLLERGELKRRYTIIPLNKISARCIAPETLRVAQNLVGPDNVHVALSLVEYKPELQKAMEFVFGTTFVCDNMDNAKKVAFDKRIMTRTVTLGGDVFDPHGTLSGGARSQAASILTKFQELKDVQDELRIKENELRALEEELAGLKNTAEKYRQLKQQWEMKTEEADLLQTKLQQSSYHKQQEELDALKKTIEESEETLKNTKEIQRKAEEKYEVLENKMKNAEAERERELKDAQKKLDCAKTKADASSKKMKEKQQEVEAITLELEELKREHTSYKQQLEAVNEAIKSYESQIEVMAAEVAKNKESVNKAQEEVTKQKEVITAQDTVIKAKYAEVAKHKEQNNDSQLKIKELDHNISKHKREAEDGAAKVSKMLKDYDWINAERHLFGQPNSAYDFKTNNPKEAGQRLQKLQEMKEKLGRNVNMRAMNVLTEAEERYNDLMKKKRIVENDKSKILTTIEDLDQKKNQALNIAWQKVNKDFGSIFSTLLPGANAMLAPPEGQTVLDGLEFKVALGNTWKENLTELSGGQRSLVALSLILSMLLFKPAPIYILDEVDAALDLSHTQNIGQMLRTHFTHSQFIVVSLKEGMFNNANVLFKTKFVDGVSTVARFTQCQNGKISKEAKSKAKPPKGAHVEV
T3 sequence (Q9NTJ3 whole entry, chain 2 of 3): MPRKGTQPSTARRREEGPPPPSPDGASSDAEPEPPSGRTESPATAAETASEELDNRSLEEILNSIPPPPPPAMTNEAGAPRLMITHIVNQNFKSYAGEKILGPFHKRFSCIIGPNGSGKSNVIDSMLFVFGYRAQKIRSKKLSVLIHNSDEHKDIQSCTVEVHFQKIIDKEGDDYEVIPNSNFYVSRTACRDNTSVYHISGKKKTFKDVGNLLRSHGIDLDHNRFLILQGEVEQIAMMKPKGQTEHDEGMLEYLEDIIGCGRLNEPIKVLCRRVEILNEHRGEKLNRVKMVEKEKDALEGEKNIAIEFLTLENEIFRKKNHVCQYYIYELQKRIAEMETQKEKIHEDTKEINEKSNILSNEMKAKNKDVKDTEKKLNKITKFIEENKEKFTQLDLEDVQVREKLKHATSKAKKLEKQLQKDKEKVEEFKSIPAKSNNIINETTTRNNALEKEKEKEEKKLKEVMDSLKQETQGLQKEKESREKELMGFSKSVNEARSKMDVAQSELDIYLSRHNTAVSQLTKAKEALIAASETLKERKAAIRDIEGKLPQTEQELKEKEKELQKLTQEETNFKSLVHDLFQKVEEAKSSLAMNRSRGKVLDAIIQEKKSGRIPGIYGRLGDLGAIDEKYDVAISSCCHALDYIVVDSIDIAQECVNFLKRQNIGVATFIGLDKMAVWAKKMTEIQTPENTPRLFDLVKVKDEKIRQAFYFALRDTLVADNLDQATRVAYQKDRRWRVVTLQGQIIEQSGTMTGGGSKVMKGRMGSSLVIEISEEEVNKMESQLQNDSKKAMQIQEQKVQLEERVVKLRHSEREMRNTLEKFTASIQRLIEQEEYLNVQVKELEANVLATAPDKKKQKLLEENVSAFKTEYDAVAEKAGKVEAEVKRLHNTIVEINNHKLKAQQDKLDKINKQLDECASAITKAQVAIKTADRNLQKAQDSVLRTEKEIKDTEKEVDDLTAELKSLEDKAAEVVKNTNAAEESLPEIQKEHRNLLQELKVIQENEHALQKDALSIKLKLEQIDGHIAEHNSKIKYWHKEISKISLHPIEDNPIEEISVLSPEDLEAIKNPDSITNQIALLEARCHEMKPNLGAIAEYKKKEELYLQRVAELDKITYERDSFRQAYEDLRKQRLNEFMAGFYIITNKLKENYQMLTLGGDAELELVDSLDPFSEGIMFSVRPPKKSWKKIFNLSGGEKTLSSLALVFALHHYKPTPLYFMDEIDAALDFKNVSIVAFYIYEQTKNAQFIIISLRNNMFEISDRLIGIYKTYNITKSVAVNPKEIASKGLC
T3 sequence (Q6IBW4 whole entry, chain 3 of 3): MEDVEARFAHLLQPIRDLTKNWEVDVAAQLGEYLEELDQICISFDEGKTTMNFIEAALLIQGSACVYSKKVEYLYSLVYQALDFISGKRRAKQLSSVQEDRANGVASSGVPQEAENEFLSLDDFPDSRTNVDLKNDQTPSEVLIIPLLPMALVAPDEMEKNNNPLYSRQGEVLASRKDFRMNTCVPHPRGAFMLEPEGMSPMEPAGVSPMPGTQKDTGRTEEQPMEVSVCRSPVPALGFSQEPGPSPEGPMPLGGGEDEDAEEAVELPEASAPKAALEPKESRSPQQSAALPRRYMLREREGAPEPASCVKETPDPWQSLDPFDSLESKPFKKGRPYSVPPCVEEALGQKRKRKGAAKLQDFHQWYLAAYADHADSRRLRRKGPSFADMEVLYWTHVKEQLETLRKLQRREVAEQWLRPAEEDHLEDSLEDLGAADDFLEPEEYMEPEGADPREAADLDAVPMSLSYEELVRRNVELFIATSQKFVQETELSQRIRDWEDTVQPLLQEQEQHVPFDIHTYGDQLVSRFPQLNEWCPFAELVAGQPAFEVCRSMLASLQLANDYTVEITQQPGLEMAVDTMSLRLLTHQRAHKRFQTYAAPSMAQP
T1 sequence (O95347 whole entry, chain 1 of 4): as the sequence (O95347 whole entry, chain 1 of 3) above
T1 sequence (Q9NTJ3 whole entry, chain 2 of 4): as the sequence (Q9NTJ3 whole entry, chain 2 of 3) above
T1 sequence (Q6IBW4 whole entry, chain 3 of 4): as the sequence (Q6IBW4 whole entry, chain 3 of 3) above
T1 sequence (P42695 whole entry, chain 4 of 4): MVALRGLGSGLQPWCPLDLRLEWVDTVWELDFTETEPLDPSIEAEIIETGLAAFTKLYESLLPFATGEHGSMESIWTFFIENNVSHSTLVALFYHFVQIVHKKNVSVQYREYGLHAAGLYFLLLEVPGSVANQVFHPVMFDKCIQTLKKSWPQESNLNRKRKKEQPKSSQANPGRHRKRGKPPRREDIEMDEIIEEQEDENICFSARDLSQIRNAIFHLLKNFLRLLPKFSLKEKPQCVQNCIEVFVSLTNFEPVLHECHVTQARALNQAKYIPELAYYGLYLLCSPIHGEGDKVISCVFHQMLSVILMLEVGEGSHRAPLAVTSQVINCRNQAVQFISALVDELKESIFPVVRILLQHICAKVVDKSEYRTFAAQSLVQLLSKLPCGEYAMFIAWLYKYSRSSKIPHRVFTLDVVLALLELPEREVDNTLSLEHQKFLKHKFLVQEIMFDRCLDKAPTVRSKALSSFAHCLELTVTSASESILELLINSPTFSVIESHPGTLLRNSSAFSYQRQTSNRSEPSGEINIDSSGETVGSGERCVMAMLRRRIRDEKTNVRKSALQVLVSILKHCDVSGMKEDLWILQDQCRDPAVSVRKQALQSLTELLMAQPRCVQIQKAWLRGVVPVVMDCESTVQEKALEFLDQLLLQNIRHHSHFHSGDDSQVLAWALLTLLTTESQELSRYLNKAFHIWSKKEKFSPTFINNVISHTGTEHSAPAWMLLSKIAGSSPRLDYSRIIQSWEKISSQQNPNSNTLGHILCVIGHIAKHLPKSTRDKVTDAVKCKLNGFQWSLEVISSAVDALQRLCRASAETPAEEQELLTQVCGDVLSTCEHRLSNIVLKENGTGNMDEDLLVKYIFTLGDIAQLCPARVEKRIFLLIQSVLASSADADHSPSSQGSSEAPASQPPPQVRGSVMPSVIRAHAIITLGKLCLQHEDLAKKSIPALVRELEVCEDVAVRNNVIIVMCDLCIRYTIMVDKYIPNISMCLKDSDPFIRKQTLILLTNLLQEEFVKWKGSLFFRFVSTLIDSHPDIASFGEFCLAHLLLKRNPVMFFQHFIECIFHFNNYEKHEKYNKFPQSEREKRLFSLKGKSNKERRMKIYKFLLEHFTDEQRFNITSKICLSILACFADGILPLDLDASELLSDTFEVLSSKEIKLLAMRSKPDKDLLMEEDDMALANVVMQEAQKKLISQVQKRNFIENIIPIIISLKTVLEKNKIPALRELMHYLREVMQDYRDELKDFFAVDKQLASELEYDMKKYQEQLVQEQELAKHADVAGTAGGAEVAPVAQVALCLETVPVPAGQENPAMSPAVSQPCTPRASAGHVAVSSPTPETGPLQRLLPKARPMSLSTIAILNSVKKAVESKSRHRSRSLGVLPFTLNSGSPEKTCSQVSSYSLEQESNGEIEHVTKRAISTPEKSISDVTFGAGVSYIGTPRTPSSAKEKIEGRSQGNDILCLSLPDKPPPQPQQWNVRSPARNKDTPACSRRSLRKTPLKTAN

B1: MCPH1_(1-435)-MBP (domain or fragment, human, UniProt Q8NEM0 1-435, looked up)
chain: T4 sequence
notes: the text says the tag was moved to the C-terminus for this experiment; source: E. coli BL21 (DE3) pLysS, purified (Ni-NTA, ion exchange or heparin); not shown: MBP, C-terminal, kept
binds: [1] | [2] | [3]

B2: 50 bp dsDNA (dsDNA)
DNA 1: CTGTCACACCCTGTCACACCCTGTCACACCCTGTCACACCCTGTCACACC
DNA 2: GGTGTGACAGGGTGTGACAGGGTGTGACAGGGTGTGACAGGGTGTGACAG
binds: MCPH1 1-435-MBP | condensin II pentamer | [4]
